From publication PMC8673766 (Science Advances, 2021)

Target: T1, inhibin B (UniProt P05111 233-366; P09529 293-407)
T1 sequence (looked up) 1: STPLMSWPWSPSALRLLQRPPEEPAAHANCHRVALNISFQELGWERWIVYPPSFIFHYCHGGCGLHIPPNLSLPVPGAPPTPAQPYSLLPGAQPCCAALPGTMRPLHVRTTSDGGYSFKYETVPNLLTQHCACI
T1 sequence (looked up) 2: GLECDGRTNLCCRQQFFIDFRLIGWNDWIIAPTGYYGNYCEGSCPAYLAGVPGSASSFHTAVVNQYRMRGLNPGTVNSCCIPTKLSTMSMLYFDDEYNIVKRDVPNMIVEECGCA
Assay: SPR

Kd: 52 nM
B1: murine TGFBR3L extracellular domain (R36-R211) (domain or fragment, UniProt D3YZZ2 36-211, looked up)
chain: RRPLFSLELSDAEDAFPRRAGPLEVPADSHVFVQAALARPSPRWGLALHRCSVTPSSRPTLGPALVLLRGGCPADDSVSFSPPPRPDAASVSRFSFRLRPVFNASVQFLHCQISRCRRRSSHHRRAVRLTPVPLTPPAPLRCLPQDEACAGSSLSLGTDSPHLHMLTQPIVVTIPR
